# Measurements from patent US6117976, “Manufacture and use of polypeptides tagged using binding molecules” (Medical Research Council, dated 2000).
# No end group written: not given here.
# Biological target: calmodulin (Homo sapiens (Human))
# Assay: not stated (off-rate from calmodulin)
row,Binder,koff [s⁻¹]
1,"CEIKRAAAINLKALAALAKKILIK (also: fluorescein label, site not given here) [TAG 4 peptide, fluoresceinated]",< 0.0001
2,"CEIKRAAAINLKALAALAKKIL (also: fluorescein label, site not given here) [TAG 2 peptide, fluoresceinated]",< 0.0001
